Reference: patent US5756684, “Cloning and expression of PUR protein” (Mount Sinai School of Medicine of the City of New York)

Experiments:
GST-Tat = GST-Tat (HIV-1, UniProt P04608 P04608:1-86); experiment: EMSA; Tat stated not to bind the upTAR element itself; conditions: tags: GST; label: 32P end
GST-Pur-alpha = target: T1, GST-Pur-alpha (Homo sapiens, UniProt Q00577 SEQ:1-322); experiment: EMSA; 7.5 pmol; Tat at 1:1 enhances binding nearly 10-fold; conditions: tags: N-terminal GST; label: 32P end
T1 sequence: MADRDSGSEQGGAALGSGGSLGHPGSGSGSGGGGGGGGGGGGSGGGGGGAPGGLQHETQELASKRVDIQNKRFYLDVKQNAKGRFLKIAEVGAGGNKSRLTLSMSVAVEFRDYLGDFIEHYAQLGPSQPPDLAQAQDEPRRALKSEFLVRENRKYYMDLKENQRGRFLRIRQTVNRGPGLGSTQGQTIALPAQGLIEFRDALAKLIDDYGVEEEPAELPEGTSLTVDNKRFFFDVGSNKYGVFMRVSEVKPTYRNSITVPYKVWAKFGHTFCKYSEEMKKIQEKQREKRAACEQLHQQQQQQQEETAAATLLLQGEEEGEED
Protocol: FIG. 21A. Specificity of binding of Purα to the JCV upTAR element. The different oligonucleotide probes used for the indicated reactions are: JCV+, the purine-rich single strand of the upTAR element; JCV ds, the double-stranded upTAR element, only the pyrimidine-rich strand of which is labeled; JCV−, the pyrimidine-rich strand of the upTAR element.
8.1.2. Binding of PURα to the JVC upTAR PUR Element in the Presence or Absence of Tat All gel shifts were performed as described in Section 6.1.2. using ^32P end-labeled 24-mer oligonucleotide probe representing a dimer of the upTAR element. The purine-rich strand of this oligonucleotide is: 5'-[…]-3' SEQ ID NO:51. For both panels A and B, all Tat, Purα and Purα deletion mutant proteins were employed GST fusion proteins prepared by purification on glutathione agarose columns as described for FIG. 20 and eluted with glutathione. In both panels for lanes labeled +, 7.5 pmoles of each indicated protein were used. Specificity of binding of Purα to the JCV upTAR element. The different oligonucleotide probes used for the indicated reactions are: JCV+, the purine-rich single strand of the upTAR element; JCV ds, the double-stranded upTAR element, only the pyrimidine-rich strand of which is labeled; JCV−, the pyrimidine-rich strand of the upTAR element. Effect of Tat upon biding of a series of Purα deletion mutants to the JCV upTAR element. […]

B1: JCV+ (upTAR purine-rich strand dimer) (ssDNA)
DNA: GGAGGCGGAGGCGGAGGCGGAGGC
- binding result (GST-Tat): no binding
- binding result (GST-Pur-alpha): binds
